Measured values as given in publication PMC12074421, “Development and Characterization of pFluor50, a Fluorogenic-Based Kinetic Assay System for High-Throughput Inhibition Screening and Characterization of Time-Dependent Inhibition and Inhibition Type for Six Human CYPs” (Molecules, 2025).
Values joined by “and” are separate entries in the source; they are usually repeats but may differ in a detail not shown here. Identical values can stand only once.

Legend:
[1] = target: T1, CYP2C19 (Homo sapiens, UniProt P33261); assay: pFluor50 Michaelis–Menten kinetics, CYP2C19 with 3OMF; type: in vitro ADME
T1 construct: purchased Sigma Aldrich (CYPexpress, Oxford Biomedical Research, Inc.) MTOXCE2C19
Protocol: (§1) In general, the protocol for determination of the Michaelis–Menten kinetic parameters (KM and Vmax) involved addition of the appropriate master mix to phosphate buffer followed by addition of the appropriate amount of enzyme to the mix. The master mix was determined for each specific CPY450 based on empirical methods involving each reagent to obtain a linear range of enzyme activity. A total of 30 µL of this enzyme mix was then added to each well of the 384-well plate. Next, initial background readings were taken for 5 min, after which the appropriate amount of substrate was dispensed into each well using the onboard reagent dispenser of the plate reader. All plates contained one blank well without enzyme (only master mix) for each substrate concentration. […] Table 1 provides the formulation of the master mix for each CYP, the kinetic read time with substrate, the read time interval, the concentration range of the substrate used for the Michaelis–Menten kinetics, the Ex and Em wavelengths, and the concentration of substrate for inhibition/activation screening. Table S1 details the specific parameters used for the plate reader for each CYP–substrate pair.
(§2) For determining the Michaelis–Menten kinetic parameters (KM and Vmax) for each CYP–substrate pair, kinetic studies were performed in which a range of different concentrations of the substrate were used. Table 1 details the formulations for the master mix, CYPexpress^TM concentrations, and concentration ranges of each specific substrate. For each CYP–substrate pair, plate reader parameters were set up as described in Table S1. […] Briefly, the working solution was prepared for each substrate and then primed into one of the dispensers on the plate reader. […] The amount of CYPexpress reagent in units/(mg/mL) was determined for each enzyme as new lots may have slightly different activities, and the activity of the reagent may change over time. The appropriate mass of each CYPexpress^TM reagent needed to obtain the required units was measured using an analytical balance and was transferred to the master mix solution. […]

[2] = target: CYP2D6 (Homo sapiens, UniProt P10635); assay: pFluor50 Michaelis–Menten kinetics, CYP2D6 with Eres; type: in vitro ADME; parameters: purchased Sigma Aldrich (CYPexpress, Oxford Biomedical Research, Inc.) MTOXCE2D6
Protocol: as §1, with “reader.” for “reader. All plates contained one blank well without enzyme (only master mix) for each substrate concentration.”
For determining the Michaelis–Menten kinetic parameters (KM and Vmax) for each CYP–substrate pair, kinetic studies were performed in which a range of different concentrations of the substrate were used. […] For each CYP–substrate pair, plate reader parameters were set up as described in Table S1. […]

[3] = target: CYP2C9 (Homo sapiens, UniProt P11712); assay: pFluor50 Michaelis–Menten kinetics, CYP2C9 with Eres; type: in vitro ADME; parameters: purchased Sigma Aldrich (CYPexpress, Oxford Biomedical Research, Inc.) MTOXCE2C9
Protocol: as §1, §2

[4] = substrate: CCOc1ccc2nc3ccc(=O)cc-3oc2c1; assay: pFluor50 Michaelis–Menten kinetics, CYP1A2 with Eres; type: in vitro ADME, human; settings: pH 7.4
Protocol: as §1
(§3) For determining the Michaelis–Menten kinetic parameters (KM and Vmax) for each CYP–substrate pair, kinetic studies were performed in which a range of different concentrations of the substrate were used. Table 1 details the formulations for the master mix, CYPexpress^TM concentrations, and concentration ranges of each specific substrate. For each CYP–substrate pair, plate reader parameters were set up as described in Table S1. The protocol used for Michaelis–Menten kinetics was similar for all the CYPs. Briefly, the working solution was prepared for each substrate and then primed into one of the dispensers on the plate reader. The other dispenser was primed with the buffer solution. 1.5 mL of phosphate buffer solution (pH 7.4) was used to prepare the master mix with the appropriate concentration of each reagent as specified in Table 1 (NADPH, NADP+, G6P, G6PDH, and/or MgCl2). The amount of CYPexpress reagent in units/(mg/mL) was determined for each enzyme as new lots may have slightly different activities, and the activity of the reagent may change over time. The appropriate mass of each CYPexpress^TM reagent needed to obtain the required units was measured using an analytical balance and was transferred to the master mix solution. This solution was mixed, and 30 µL of the solution was added to each well using a multichannel pipette. In each case, a blank control well was also included, as described in Figure S1. The plate was then transferred to the plate reader and readings were taken at the time intervals, for the appropriate length of time, and at the appropriate wavelengths as specified in Table 1.
(§4) Calibration curves were constructed using the determined plate reader settings (Figure S3) and concentrations of the products formed to allow for the calculation of product formation rates based on the observed fluorescence. For these calculations, we presumed that the total increase in observed fluorescence over time was due only to product formation. Calibration curves were generated with 6 different concentrations of the products (fluorescein and resorufin), which spanned the relative fluorescence units (RFU) observed during the kinetic experiments. This allowed for the calculation of product concentrations from the observed RFU, enabling the calculation of the product formation rates. Unfortunately, fluorescein benzyl ester (the product formed from the metabolism of dibenzyl fluorescein) is not commercially available. Therefore, the exact rate of formation could not be determined, and the Vmax for CYP3A4 cleavage of dibenzyl fluorescein has been reported as the rate of change in relative fluorescence units (RFUs) per minute.

[5] = substrate: CCOc1ccc2nc3ccc(=O)cc-3oc2c1; assay: pFluor50 Michaelis–Menten kinetics, CYP2C9 with Eres; type: in vitro ADME, human; settings: pH 7.4
Protocol: as §1, §2

[6] = substrate: COc1ccc2c(-c3ccccc3C(=O)O)c3ccc(=O)cc-3oc2c1; assay: pFluor50 Michaelis–Menten kinetics, CYP2C19 with 3OMF; type: in vitro ADME, human; settings: pH 7.4
Protocol: as §1
For determining the Michaelis–Menten kinetic parameters (KM and Vmax) for each CYP–substrate pair, kinetic studies were performed in which a range of different concentrations of the substrate were used. […] For each CYP–substrate pair, plate reader parameters were set up as described in Table S1. […] Briefly, the working solution was prepared for each substrate and then primed into one of the dispensers on the plate reader. […] The amount of CYPexpress reagent in units/(mg/mL) was determined for each enzyme as new lots may have slightly different activities, and the activity of the reagent may change over time. The appropriate mass of each CYPexpress^TM reagent needed to obtain the required units was measured using an analytical balance and was transferred to the master mix solution. […] The plate was then transferred to the plate reader and readings were taken at the time intervals, for the appropriate length of time, and at the appropriate wavelengths as specified in Table 1.
Calibration curves were constructed using the determined plate reader settings (Figure S3) and concentrations of the products formed to allow for the calculation of product formation rates based on the observed fluorescence. For these calculations, we presumed that the total increase in observed fluorescence over time was due only to product formation. Calibration curves were generated with 6 different concentrations of the products (fluorescein and resorufin), which spanned the relative fluorescence units (RFU) observed during the kinetic experiments. […]

[7] = substrate: CCOc1ccc2nc3ccc(=O)cc-3oc2c1; assay: pFluor50 Michaelis–Menten kinetics, CYP2D6 with Eres; type: in vitro ADME, human; settings: pH 7.4
Protocol: as §1
as §3, with “In each case, a blank control well was also included, as described in Figure S1.” left out
as §4, with “This allowed for the calculation of product concentrations from the observed RFU, enabling the calculation of the product formation rates. Unfortunately, fluorescein benzyl ester (the product formed from the metabolism of dibenzyl fluorescein) is not commercially available.” left out

[8] = other: CYP1A2 1 mg/mL, three biological replicates
[9] = other: CYP1A2, biological repeat 1
[10] = other: CYP1A2, biological repeat 2
[11] = other: CYP1A2, biological repeat 3
[12] = other: CYP2C19 2 mg/mL, three biological replicates
[13] = other: CYP2D6 1 mg/mL, three biological replicates

Molecule: COc1ccc2c(-c3ccccc3C(=O)O)c3ccc(=O)cc-3oc2c1 [3OMF, 2-(6-methoxy-3-oxo-3H-xanthen-9-yl)benzoic acid]
- Vmax – repeat 1 ([1]; CYP2C19, biological repeat 1): 19.35 nmol/min
- Vmax – repeat 2 ([1]; CYP2C19, biological repeat 2): 15.86 nmol/min
- Vmax – repeat 3 ([1]; CYP2C19, biological repeat 3): 19.37 nmol/min

Molecule: CCOc1ccc2nc3ccc(=O)cc-3oc2c1 [Eres, 7-ethoxy-3H-phenoxazin-3-one]
- Vmax – repeat 1 ([2]; CYP2D6, biological repeat 1): 1.22 nmol/min
- Vmax – repeat 2 ([2]; CYP2D6, biological repeat 2): 0.72 nmol/min
- Vmax – repeat 1 ([3]; CYP2C9, biological repeat 1): 0.40 nmol/min
- Vmax – repeat 2 ([3]; CYP2C9, biological repeat 2): 0.39 nmol/min
- Vmax – repeat 3 ([3]; CYP2C9, biological repeat 3): 0.49 nmol/min

B1: CYP1A2 (Homo sapiens) (protein)
chain: ALSQSVPFSATELLLASAIFCLVFWVLKGLRPRVPKGLKSPPEPWGWPLLGHVLTLGKNPHLALSRMSQRYGDVLQIRIGSTPVLVLSRLDTIRQALVRQGDDFKGRPDLYTSTLITDGQSLTFSTDSGPVWAARRRLAQNALNTFSIASDPASSSSCYLEEHVSKEAKALISRLQELMAGPGHFDPYNQVVVSVANVIGAMCFGQHFPESSDEMLSLVKNTHEFVETASSGNPLDFFPILRYLPNPALQRFKAFNQRFLWFLQKTVQEHYQDFDKNSVRDITGALFKHSKKGPRASGNLIPQEKIVNLVNDIFGAGFDTVTTAISWSLMYLVTKPEIQRKIQKELDTVIGRERRPRLSDRPQLPYLEAFILETFRHSSFLPFTIPHSTTRDTTLNGFYIPKKCCVFVNQWQVNHDPELWEDPSEFRPERFLTADGTAINKPLSEKMMLFGMGKRRCIGEVLAKWEIFLFLAILLQQLEFSVPPGVKVDLTPIYGLTMKHARCEHVQARLRFSIN
notes: purchased Sigma Aldrich (CYPexpress, Oxford Biomedical Research, Inc.) MTOXCE1A2
- Km [4, 8]: 0.35 ± 0.1 µM
- Vmax [4, 8]: 1.61 nmol/min
- Km [4, 9]: 0.33 µM
- Vmax [4, 9]: 1.64 nmol/min
- Km [4, 10]: 0.225 µM
- Vmax [4, 10]: 1.38 nmol/min
- Km [4, 11]: 0.47 µM
- Vmax [4, 11]: 1.82 nmol/min

B2: CYP2C9 (Homo sapiens) (protein)
chain: MDSLVVLVLCLSCLLLLSLWRQSSGRGKLPPGPTPLPVIGNILQIGIKDISKSLTNLSKVYGPVFTLYFGLKPIVVLHGYEAVKEALIDLGEEFSGRGIFPLAERANRGFGIVFSNGKKWKEIRRFSLMTLRNFGMGKRSIEDRVQEEARCLVEELRKTKASPCDPTFILGCAPCNVICSIIFHKRFDYKDQQFLNLMEKLNENIKILSSPWIQICNNFSPIIDYFPGTHNKLLKNVAFMKSYILEKVKEHQESMDMNNPQDFIDCFLMKMEKEKHNQPSEFTIESLENTAVDLFGAGTETTSTTLRYALLLLLKHPEVTAKVQEEIERVIGRNRSPCMQDRSHMPYTDAVVHEVQRYIDLLPTSLPHAVTCDIKFRNYLIPKGTTILISLTSVLHDNKEFPNPEMFDPHHFLDEGGNFKKSKYFMPFSAGKRICVGEALAGMELFLFLTSILQNFNLKSLVDPKNLDTTPVVNGFASVPPFYQLCFIPV
notes: purchased Sigma Aldrich (CYPexpress, Oxford Biomedical Research, Inc.) MTOXCE2C9
- Km ([5]; other: CYP2C9, biological repeat 1): 0.46 µM
- Km ([5]; other: CYP2C9, biological repeat 2): 0.52 µM
- Km ([5]; other: CYP2C9, biological repeat 3): 0.39 µM

B3: CYP2C19 (Homo sapiens) (protein)
chain: MDPFVVLVLCLSCLLLLSIWRQSSGRGKLPPGPTPLPVIGNILQIDIKDVSKSLTNLSKIYGPVFTLYFGLERMVVLHGYEVVKEALIDLGEEFSGRGHFPLAERANRGFGIVFSNGKRWKEIRRFSLMTLRNFGMGKRSIEDRVQEEARCLVEELRKTKASPCDPTFILGCAPCNVICSIIFQKRFDYKDQQFLNLMEKLNENIRIVSTPWIQICNNFPTIIDYFPGTHNKLLKNLAFMESDILEKVKEHQESMDINNPRDFIDCFLIKMEKEKQNQQSEFTIENLVITAADLLGAGTETTSTTLRYALLLLLKHPEVTAKVQEEIERVIGRNRSPCMQDRGHMPYTDAVVHEVQRYIDLIPTSLPHAVTCDVKFRNYLIPKGTTILTSLTSVLHDNKEFPNPEMFDPRHFLDEGGNFKKSNYFMPFSAGKRICVGEGLARMELFLFLTFILQNFNLKSLIDPKDLDTTPVVNGFASVPPFYQLCFIPV
notes: purchased Sigma Aldrich (CYPexpress, Oxford Biomedical Research, Inc.) MTOXCE2C19
- Km [6, 12]: 2.3 ± 0.8 µM and 2.31 ± 0.8 µM
- Vmax [6, 12]: 0.0182 µmol/min
- Km ([6]; other: CYP2C19, biological repeat 1): 3.19 µM
- Km ([6]; other: CYP2C19, biological repeat 2): 1.42 µM

B4: CYP2D6 (Homo sapiens) (protein)
chain: MGLEALVPLAVIVAIFLLLVDLMHRRQRWAARYPPGPLPLPGLGNLLHVDFQNTPYCFDQLRRRFGDVFSLQLAWTPVVVLNGLAAVREALVTHGEDTADRPPVPITQILGFGPRSQGVFLARYGPAWREQRRFSVSTLRNLGLGKKSLEQWVTEEAACLCAAFANHSGRPFRPNGLLDKAVSNVIASLTCGRRFEYDDPRFLRLLDLAQEGLKEESGFLREVLNAVPVLLHIPALAGKVLRFQKAFLTQLDELLTEHRMTWDPAQPPRDLTEAFLAEMEKAKGNPESSFNDENLRIVVADLFSAGMVTTSTTLAWGLLLMILHPDVQRRVQQEIDDVIGQVRRPEMGDQAHMPYTTAVIHEVQRFGDIVPLGVTHMTSRDIEVQGFRIPKGTTLITNLSSVLKDEAVWEKPFRFHPEHFLDAQGHFVKPEAFLPFSAGRRACLGEPLARMELFLFFTSLLQHFSFSVPTGQPRPSHHGVFAFLVSPSPYELCAVPR
notes: purchased Sigma Aldrich (CYPexpress, Oxford Biomedical Research, Inc.) MTOXCE2D6
- Km [7, 13]: 1.63 ± 0.7 µM
- Vmax [7, 13]: 0.00093 µmol/min
- Km ([7]; other: CYP2D6, biological repeat 1): 2.43 µM
- Km ([7]; other: CYP2D6, biological repeat 2): 0.89 µM
- Km ([7]; other: CYP2D6, biological repeat 3): 1.57 µM
